Experimental data from paper doi:10.1101/2021.08.02.454737.

How the values were obtained:
[1] = molecular target: T1, UPF1 RM-3F (RNA mutant, UPF1R RM-3F) (human, UniProt Q92900-2 1-1118, N524A;K547A;R843A); test: MST
T1 sequence: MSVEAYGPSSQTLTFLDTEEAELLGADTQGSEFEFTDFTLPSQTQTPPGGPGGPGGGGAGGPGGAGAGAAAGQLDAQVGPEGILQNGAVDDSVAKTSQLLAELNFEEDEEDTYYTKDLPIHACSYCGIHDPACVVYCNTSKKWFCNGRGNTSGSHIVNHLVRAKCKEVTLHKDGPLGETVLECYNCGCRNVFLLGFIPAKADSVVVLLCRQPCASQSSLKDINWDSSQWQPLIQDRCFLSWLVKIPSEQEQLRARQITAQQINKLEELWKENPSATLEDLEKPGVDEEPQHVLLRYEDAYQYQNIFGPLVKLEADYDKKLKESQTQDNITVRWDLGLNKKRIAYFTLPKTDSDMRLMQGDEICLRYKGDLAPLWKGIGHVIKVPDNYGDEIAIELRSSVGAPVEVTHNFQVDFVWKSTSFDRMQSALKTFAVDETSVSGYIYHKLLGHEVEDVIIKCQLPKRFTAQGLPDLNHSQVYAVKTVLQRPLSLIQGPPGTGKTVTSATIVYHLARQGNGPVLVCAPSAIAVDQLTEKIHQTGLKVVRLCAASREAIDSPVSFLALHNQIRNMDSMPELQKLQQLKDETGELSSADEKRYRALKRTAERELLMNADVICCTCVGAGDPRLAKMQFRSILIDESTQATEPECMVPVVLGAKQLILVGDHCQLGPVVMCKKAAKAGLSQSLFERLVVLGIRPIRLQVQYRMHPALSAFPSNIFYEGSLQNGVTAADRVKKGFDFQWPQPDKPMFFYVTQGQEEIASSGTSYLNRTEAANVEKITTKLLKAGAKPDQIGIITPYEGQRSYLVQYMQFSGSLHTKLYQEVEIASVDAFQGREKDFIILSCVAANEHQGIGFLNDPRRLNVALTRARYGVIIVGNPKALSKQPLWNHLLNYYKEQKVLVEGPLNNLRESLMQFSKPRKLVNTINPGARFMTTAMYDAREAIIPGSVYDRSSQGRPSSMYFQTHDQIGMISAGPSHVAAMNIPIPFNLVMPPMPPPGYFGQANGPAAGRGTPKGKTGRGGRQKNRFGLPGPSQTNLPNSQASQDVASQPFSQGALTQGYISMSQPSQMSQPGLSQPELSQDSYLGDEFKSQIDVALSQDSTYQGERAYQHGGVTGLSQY

UPF1-3F (wt, UPF1R-3F) = molecular target: T2, UPF1-3F (wt, UPF1R-3F) (human, UniProt Q92900-2 1-1118); test: MST
T2 sequence: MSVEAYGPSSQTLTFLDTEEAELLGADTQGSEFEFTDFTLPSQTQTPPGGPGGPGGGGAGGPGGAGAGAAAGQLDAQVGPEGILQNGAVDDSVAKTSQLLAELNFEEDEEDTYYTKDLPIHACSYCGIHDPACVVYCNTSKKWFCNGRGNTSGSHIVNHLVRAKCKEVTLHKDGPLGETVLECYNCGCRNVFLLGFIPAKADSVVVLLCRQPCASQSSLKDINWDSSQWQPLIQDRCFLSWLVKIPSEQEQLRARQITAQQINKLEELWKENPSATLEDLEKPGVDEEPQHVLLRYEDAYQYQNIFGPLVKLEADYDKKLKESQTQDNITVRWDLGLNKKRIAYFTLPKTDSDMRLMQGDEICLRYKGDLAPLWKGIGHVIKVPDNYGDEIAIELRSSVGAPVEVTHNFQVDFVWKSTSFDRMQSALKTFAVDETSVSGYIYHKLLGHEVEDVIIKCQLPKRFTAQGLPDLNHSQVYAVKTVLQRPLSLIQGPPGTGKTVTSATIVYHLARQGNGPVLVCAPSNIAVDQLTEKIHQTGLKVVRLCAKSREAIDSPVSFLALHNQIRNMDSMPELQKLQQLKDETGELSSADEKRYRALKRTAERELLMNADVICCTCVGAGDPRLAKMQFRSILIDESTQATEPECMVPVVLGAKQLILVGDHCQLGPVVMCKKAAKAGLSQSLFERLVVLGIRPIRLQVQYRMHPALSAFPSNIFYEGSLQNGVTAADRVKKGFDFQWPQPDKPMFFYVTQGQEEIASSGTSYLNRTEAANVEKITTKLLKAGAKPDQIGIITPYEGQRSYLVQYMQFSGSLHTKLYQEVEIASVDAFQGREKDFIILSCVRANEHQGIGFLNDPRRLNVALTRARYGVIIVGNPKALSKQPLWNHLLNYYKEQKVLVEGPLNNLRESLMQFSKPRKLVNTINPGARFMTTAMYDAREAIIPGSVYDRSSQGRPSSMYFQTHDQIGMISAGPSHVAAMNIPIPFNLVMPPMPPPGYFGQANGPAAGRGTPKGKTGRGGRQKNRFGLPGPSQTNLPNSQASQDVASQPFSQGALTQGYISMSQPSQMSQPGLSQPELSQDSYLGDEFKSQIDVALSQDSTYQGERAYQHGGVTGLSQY

With UUUUUUUUUUUUUUUUUUUUUUUUUUUUUU (ssRNA) [U30 RNA] the binding result [1] was “no binding” and the Kd (UPF1-3F (wt, UPF1R-3F)) was 0.0253 ± 0.00443 µM.
